Assay results reported in PMC9646914, “Nicking mechanism underlying the DNA phosphorothioate-sensing antiphage defense by SspE” (Nature Communications, 2022).

How the values were obtained:
[1] = target: T1, SspE (Streptomyces yokosukanensis, UniProt A0A6I8WFL9); experiment: malachite green phosphate release (QuantiChrom ATPase/GTPase kit); type: biochemical; details: 100 uM GTP, 1 uM protein, alone or with 1 uM 40-bp DNA with or without phosphorothioate; Mg acetate 10 mM, pH 7.9, 28 C
T1 construct: full length, 771 residues (2,313-bp gene); NTD 1-324 GTPase (DGQQR motif 96-100), CTD 332-771 HNH nickase; expressed in E. coli BL21(DE3), Ni-NTA and Superdex 200
T1 sequence (A0A6I8WFL9 entry or part of it): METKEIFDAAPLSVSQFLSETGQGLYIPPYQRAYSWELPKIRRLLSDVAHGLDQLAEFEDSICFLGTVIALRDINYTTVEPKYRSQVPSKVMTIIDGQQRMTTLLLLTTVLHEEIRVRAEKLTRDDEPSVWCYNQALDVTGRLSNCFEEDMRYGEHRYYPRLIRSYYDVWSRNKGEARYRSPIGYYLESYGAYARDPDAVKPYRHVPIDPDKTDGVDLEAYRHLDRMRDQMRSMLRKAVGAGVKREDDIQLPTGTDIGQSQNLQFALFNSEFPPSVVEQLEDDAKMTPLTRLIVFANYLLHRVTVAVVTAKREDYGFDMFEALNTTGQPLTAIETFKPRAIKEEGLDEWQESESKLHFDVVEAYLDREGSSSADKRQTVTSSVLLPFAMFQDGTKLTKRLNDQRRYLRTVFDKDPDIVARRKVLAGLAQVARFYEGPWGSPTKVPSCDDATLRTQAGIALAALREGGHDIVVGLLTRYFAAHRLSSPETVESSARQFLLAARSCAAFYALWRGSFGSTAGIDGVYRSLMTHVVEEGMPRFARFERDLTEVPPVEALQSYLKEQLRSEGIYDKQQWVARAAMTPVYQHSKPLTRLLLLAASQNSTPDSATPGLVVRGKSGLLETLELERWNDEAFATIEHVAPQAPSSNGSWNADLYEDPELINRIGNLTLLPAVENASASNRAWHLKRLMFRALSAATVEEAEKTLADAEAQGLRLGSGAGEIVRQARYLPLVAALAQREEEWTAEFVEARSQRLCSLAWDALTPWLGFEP

[2] = test system: SspE (Streptomyces yokosukanensis DSM 40224); experiment: MST; details: EMSA: 10 mM Tris-HCl pH 8.0 (20 mM in Fig 3 legend), 100 mM NaCl, 0.01 mM EDTA, 5% glycerol, 15 min 30 C, MST: 10 mM Tris-HCl pH 8.0, 100 mM NaCl, 12.5 nM DNA …
[3] = test system: SspE-CTD (Streptomyces yokosukanensis DSM 40224); experiment: EMSA; details: EMSA: 10 mM Tris-HCl pH 8.0 (20 mM in Fig 3 legend), 100 mM NaCl, 0.01 mM EDTA, 5% glycerol, 15 min 30 C; MST: 10 mM Tris-HCl pH 8.0, 100 mM NaCl, 12.5 nM DNA …
[4] = test system: SspE (Streptomyces yokosukanensis DSM 40224); experiment: EMSA; details: EMSA: 10 mM Tris-HCl pH 8.0 (20 mM in Fig 3 legend), 100 mM NaCl, 0.01 mM EDTA, 5% glycerol, 15 min 30 C; MST: 10 mM Tris-HCl pH 8.0, 100 mM NaCl, 12.5 nM DNA …
[5] = test system: SspE K40A (Streptomyces yokosukanensis DSM 40224); experiment: EMSA; details: EMSA: 10 mM Tris-HCl pH 8.0 (20 mM in Fig 3 legend), 100 mM NaCl, 0.01 mM EDTA, 5% glycerol, 15 min 30 C; MST: 10 mM Tris-HCl pH 8.0, 100 mM NaCl, 12.5 nM DNA …

## Nc1nc2c(ncn2[C@@H]2O[C@H](COP(=O)(O)OP(=O)(O)OP(=O)(O)O)[C@@H](O)[C@H]2O)c(=O)[nH]1 [GTP]
[1]
  GTPase activity: The GTP hydrolysis activity of SspE and its mutants was assayed

## 2-kb PT DNA (CpsCA at both termini)
[2]; phosphorothioate C12-C13 of primer #7 and C17-C18 of primer #8
  Kd: 8.5 µM

## linearized pUC19
[3]
  Kd: 3 µM
[4]
  Kd: 17.8 µM
[5]
  Kd: 22.2 µM

## 2-kb non-PT DNA (CCA)
[2]
  Kd: 18.4 µM
